From US20090099029A1, “Methods and substrates for conducting assays” (Invitrogen Corporation, priority 2005, published 2009)

Test system: kinases of Table 6 on Myelin Basic Protein (MBP)
Assay: Kinase assay using MBP substrate, ProQ Diamond stain (Table 6)
Format: biochemical
Details: kinase printed on MBP-coated slide; 20 uM ATP, 30° C.; ProQ Diamond Microarray Stain; graded Strong/Weak/Negative
Experimental: In this illustrative example, four-well slides were designed with a hydrophobic mask surrounding 4-wells of aldehyde- or epoxy-coated glass (smooth or ES grade; Erie Scientific (Portsmouth, N.H.)). […] Bovine, dephosphorylated, Myelin Basic Protein (MBP) was purchased from Upstate Biotechnology (#13-110). MBP was diluted to 1 mg/ml in PBS, applied to the slide surface, covered with a coverslip, and left overnight at 4° C. to coat the slide with the MBP. Slides were washed 3 times with water and spun dry before printing.
Kinases were purchased from Panvera (Invitrogen, Carlsbad, Calif.), diluted in printing buffer (50 mM Tris pH 7.5, 25% glyercol, 0.05% TritonX-100, 2 mM DTT) and deposited using a GeneMachine OmniGrid100. Slides were stored at −20° C.
Reactions were performed following removal of the slide from the freezer. Reaction buffer (20 mM HEPES pH 7.5, 4 mM MgCl2, 2 mM DTT, 20 uM ATP, 5% DMSO) was added with or without inhibitor, a coverslip applied, and the slide placed at 30° C. for the appropriate reaction time. The slide was washed with water to stop the reaction (3 times) and spun dry. ProQ Diamond Microarray Stain (Invitrogen #P33706) was applied, covered with a coverslip, and the slide was incubated in the dark at room temperature for 30 minutes. The slide was destained and washed three times with water, and spun dry.

B1: CHEK1 (protein)
chain: MAVPFVEDWDLVQTLGEGAYGEVQLAVNRVTEEAVAVKIVDMKRAVDCPENIKKEICINKMLNHENVVKFYGHRREGNIQYLFLEYCSGGELFDRIEPDIGMPEPDAQRFFHQLMAGVVYLHGIGITHRDIKPENLLLDERDNLKISDFGLATVFRYNNRERLLNKMCGTLPYVAPELLKRREFHAEPVDVWSCGIVLTAMLAGELPWDQPSDSCQEYSDWKEKKTYLNPWKKIDSAPLALLHKILVENPSARITIPDIKKDRWYNKPLKKGAKRPRVTSGGVSESPSGFSKHIQSNLDFSPVNSASSEENVKYSSSQPEPRTGLSLWDTSPSYIDKLVQGISFSQPTCPDHMLLNSQLLGTPGSSQNPWQRLVKRMTRFFTKLDADKSYQCLKETCEKLGYQWKKSCMNQVTISTTDRRNNKLIFKVNLLEMDDKILVDFRLSKGDGLEFKRHFLKIKGKLIDIVSSQKIWLPAT
modifications: left off: small tags and cut ends
MBP Kinase Activity: Strong

B2: DAPK2 (protein)
chain: MFQASMRSPNMEPFKQQKVEDFYDIGEELGSGQFAIVKKCREKSTGLEYAAKFIKKRQSRASRRGVSREEIEREVSILRQVLHHNVITLHDVYENRTDVVLILELVSGGELFDFLAQKESLSEEEATSFIKQILDGVNYLHTKKIAHFDLKPENIMLLDKNIPIPHIKLIDFGLAHEIEDGVEFKNIFGTPEFVAPEIVNYEPLGLEADMWSIGVITYILLSGASPFLGDTKQETLANITAVSYDFDEEFFSQTSELAKDFIRKLLVKETRKRLTIQEALRHPWITPVDNQQAMVRRESVVNLENFRKQYVRRRWKLSFSIVSLCNHLTRSLMKKVHLRPDEDLRNCESDTEEDIARRKALHPRRRSSTS
modifications: left off: a dimerising Fc or GST
MBP Kinase Activity: Negative

B3: CSNK1D(CK1delta) (protein)
chain: MELRVGNRYRLGRKIGSGSFGDIYLGTDIAAGEEVAIKLECVKTKHPQLHIESKIYKMMQGGVGIPTIRWCGAEGDYNVMVMELLGPSLEDLFNFCSRKFSLKTVLLLADQMISRIEYIHSKNFIHRDVKPDNFLMGLGKKGNLVYIIDFGLAKKYRDARTHQHIPYRENKNLTGTARYASINTHLGIEQSRRDDLESLGYVLMYFNLGSLPWQGLKAATKRQKYERISEKKMSTPIEVLCKGYPSEFATYLNFCRSLRFDDKPDYSYLRQLFRNLFHRQGFSYDYVFDWNMLKFGASRAADDAERERRDREERLRHSRNPATRGLPSTASGRLRGTQEVAPPTPLTPTSHTANTSPRPVSGMERERKVSMRLHRGAPVNISSSDLTGRQDTSRMSTSQNSIPFEHHGK
modifications: left off: a dimerising Fc or GST
MBP Kinase Activity: Negative

B4: DMPK (protein)
chain: MSAEVRLRRLQQLVLDPGFLGLEPLLDLLLGVHQELGASELAQDKYVADFLQWAEPIVVRLKEVRLQRDDFEILKVIGRGAFSEVAVVKMKQTGQVYAMKIMNKWDMLKRGEVSCFREERDVLVNGDRRWITQLHFAFQDENYLYLVMEYYVGGDLLTLLSKFGERIPAEMARFYLAEIVMAIDSVHRLGYVHRDIKPDNILLDRCGHIRLADFGSCLKLRADGTVRSLVAVGTPDYLSPEILQAVGGGPGTGSYGPECDWWALGVFAYEMFYGQTPFYADSTAETYGKIVHYKEHLSLPLVDEGVPEEARDFIQRLLCPPETRLGRGGAGDFRTHPFFFGLDWDGLRDSVPPFTPDFEGATDTCNFDLVEDGLTAMVSGGGETLSDIREGAPLGVHLPFVGYSYSCMALRDSEVPGPTPMELEAEQLLEPHVQAPSLEPSVSPQDETAEVAVPAAVPAAEAEAEVTLRELQEALEEEVLTRQSLSREMEAIRTDNQNFASQLREAEARNRDLEAHVRQLQERMELLQAEGATAVTGVPSPRATDPPSHLDGPPAVAVGQCPLVGPGPMHRRHLLLPARVPRPGLSEALSLLLFAVVLSRAAALGCIGLVAHAGQLTAVWRRPGAARAP
modifications: left off: a dimerising Fc or GST
MBP Kinase Activity: Negative

B5: DYRK3 (protein)
chain: MGGTARGPGRKDAGPPGAGLPPQQRRLGDGVYDTFMMIDETKCPPCSNVLCNPSEPPPPRRLNMTTEQFTGDHTQHFLDGGEMKVEQLFQEFGNRKSNTIQSDGISDSEKCSPTVSQGKSSDCLNTVKSNSSSKAPKVVPLTPEQALKQYKHHLTAYEKLEIINYPEIYFVGPNAKKRHGVIGGPNNGGYDDADGAYIHVPRDHLAYRYEVLKIIGKGSFGQVARVYDHKLRQYVALKMVRNEKRFHRQAAEEIRILEHLKKQDKTGSMNVIHMLESFTFRNHVCMAFELLSIDLYELIKKNKFQGFSVQLVRKFAQSILQSLDALHKNKIIHCDLKPENILLKHHGRSSTKVIDFGSSCFEYQKLYTYIQSRFYRAPEIILGSRYSTPIDIWSFGCILAELLTGQPLFPGEDEGDQLACMMELLGMPPPKLLEQSKRAKYFINSKGIPRYCSVTTQADGRVVLVGGRSRRGKKRGPPGSKDWGTALKGCDDYLFIEFLKRCLHWDPSARLTPAQALRHPWISKSVPRPLTTIDKVSGKRVVNPASAFQGLGSKLPPVVGIANKLKANLMSETNGSIPLCSVLPKLIS
modifications: left off: a dimerising Fc or GST
MBP Kinase Activity: Negative

B6: EPHA2 (protein)
chain: HRRRKNQRARQSPEDVYFSKSEQLKPLKTYVDPHTYEDPNQAVLKFTTEIHPSCVTRQKVIGAGEFGEVYKGMLKTSSGKKEVPVAIKTLKAGYTEKQRVDFLGEAGIMGQFSHHNIIRLEGVISKYKPMMIITEYMENGALDKFLREKDGEFSVLQLVGMLRGIAAGMKYLANMNYVHRDLAARNILVNSNLVCKVSDFGLSRVLEDDPEATYTTSGGKIPIRWTAPEAISYRKFTSASDVWSFGIVMWEVMTYGERPYWELSNHEVMKAINDGFRLPTPMDCPSAIYQLMMQCWQQERARRPKFADIVSILDKLIRAPDSLKTLADFDPRVSIRLPSTSGSEGVPFRTVSEWLESIKMQQYTEHFMAAGYTAIEKVVQMTNDDIKRIGVRLPGHQKRIAYSLLGLKDQVNTVGIPI
modifications: left off: a dimerising Fc or GST
MBP Kinase Activity: Weak

B7: EPHA1 (protein)
chain: RSRRAQRQRQQRQRDRATDVDREDKLWLKPYVDLQAYEDPAQGALDFTRELDPAWLMVDTVIGEGEFGEVYRGTLRLPSQDCKTVAIKTLKDTSPGGQWWNFLREATIMGQFSHPHILHLEGVVTKRKPIMIITEFMENGALDAFLREREDQLVPGQLVAMLQGIASGMNYLSNHNYVHRDLAARNILVNQNLCCKVSDFGLTRLLDDFDGTYETQGGKIPIRWTAPEAIAHRIFTTASDVWSFGIVMWEVLSFGDKPYGEMSNQEVMKSIEDGYRLPPPVDCPAPLYELMKNCWAYDRARRPHFQKLQAHLEQLLANPHSLRTIANFDPRMTLRLPSLSGSDGIPYRTVSEWLESIRMKRYILHFHSAGLDTMECVLELTAEDLTQMGITLPGHQKRILCSIQGFKD
modifications: left off: a dimerising Fc or GST
MBP Kinase Activity: Strong

B8: GRK4 (protein)
chain: MELENIVANSLLLKARQGGYGKKSGRSKKWKEILTLPPVSQCSELRHSIEKDYSSLCDKQPIGRRLFRQFCDTKPTLKRHIEFLDAVAEYEVADDEDRSDCGLSILDRFFNDKLAAPLPEIPPDVVTECRLGLKEENPSKKAFEECTRVAHNYLRGEPFEEYQESSYFSQFLQWKWLERQPVTKNTFRHYRVLGKGGFGEVCACQVRATGKMYACKKLQKKRIKKRKGEAMALNEKRILEKVQSRFVVSLAYAYETKDALCLVLTIMNGGDLKFHIYNLGNPGFDEQRAVFYAAELCCGLEDLQRERIVYRDLKPENILLDDRGHIRISDLGLATEIPEGQRVRGRVGTVGYMAPEVVNNEKYTFSPDWWGLGCLIYEMIQGHSPFKKYKEKVKWEEVDQRIKNDTEEYSEKFSEDAKSICRMLLTKNPSKRLGCRGEGAAGVKQHPVFKDINFRRLEANMLEPPFCPDPHAVYCKDVLDIEQFSVVKGIYLDTADEDFYARFATGCVSIPWQNEMIESGCFKDINKSESEEALPLDLDKNIHTPVSRPNRGFFYRLFRRGGCLTMVPSEKEVEPKQC
modifications: left off: a dimerising Fc or GST
MBP Kinase Activity: Negative

B9: DAPK3(ZIPK) (protein)
chain: MSTFRQEDVEDHYEMGEELGSGQFAIVRKCRQKGTGKEYAAKFIKKRRLSSSRRGVSREEIEREVNILREIRHPNIITLHDIFENKTDVVLILELVSGGELFDFLAEKESLTEDEATQFLKQILDGVHYLHSKRIAHFDLKPENIMLLDKNVPNPRIKLIDFGIAHKIEAGNEFKNIFGTPEFVAPEIVNYEPLGLEADMWSIGVITYILLSGASPFLGETKQETLTNISAVNYDFDEEYFSNTSELAKDFIRRLLVKDPKRRMTIAQSLEHSWIKAIRRRNVRGEDSGRKPERRRLKTTRLKEYTIKSHSSLPPNNSYADFERFSKVLEEAAAAEEGLRELQRSRRLCHEDVEALAAIYEEKEAWYREESDSLGQDLRRLRQELLKTEALKRQAQEEAKGALLGTSGLKRRFSRLENRYEALAKQVASEMRFVQDLVRALEQEKLQGVECGLR
modifications: left off: a dimerising Fc or GST
MBP Kinase Activity: Negative

B10: CSNK2A2 (protein)
chain: MPGPAAGSRARVYAEVNSLRSREYWDYEAHVPSWGNQDDYQLVRKLGRGKYSEVFEAINITNNERVVVKILKPVKKKKIKREVKILENLRGGTNIIKLIDTVKDPVSKTPALVFEYINNTDFKQLYQILTDFDIRFYMYELLKALDYCHSKGIMHRDVKPHNVMIDHQQKKLRLIDWGLAEFYHPAQEYNVRVASRYFKGPELLVDYQMYDYSLDMWSLGCMLASMIFRREPFFHGQDNYDQLVRIAKVLGTEELYGYLKKYHIDLDPHFNDILGQHSRKRWENFIHSENRHLVSPEALDLLDKLLRYDHQQRLTAKEAMEHPYFYPVVKEQSQPCADNAVLSSGLTAAR
modifications: left off: a dimerising Fc or GST
MBP Kinase Activity: Negative
